In patent publication US8058507B2, “HOPM1 mediated disease resistance to Pseudomonas syringae in Arabidopsis” (priority 2007, dated 2011):

Assays:
AtMIN7 [1] = experiment: Immunoblot of endogenous AtMIN7 in Arabidopsis leaves infiltrated with ΔCEL mutant bacteria (pORF43); format: in vivo; details: HopM1 delivered by 1×10^8 CFU/ml ΔCEL mutant bacteria (pORF43)
Description: In brief: leaf disc fractions were homogenized in 1×SDS-polyacrylamide gel electrophoresis (PAGE) sample buffer, boiled for 5 min, and centrifuged for 2 minutes. Proteins in the supernatant were separated on SDS-PAGE gels and transferred to Immobilon-P membrane for immunoblotting procedures (Millipore Corp., Bedford, Mass.).
AtMIN7 is a low-abundance protein in Arabidopsis plants, however it is detected with a rabbit polyclonal antibody, described herein. […] AtMIN7 was absent on the immunoblots of leaves infiltrated with ΔCEL mutant bacteria (pORF43) but not the leaves infiltrated with water or ΔCEL mutant bacteria (FIG. 2C).

Pst DC3000 ΔCEL mutant = experiment: Bacterial multiplication and disease symptoms in HopM1 transgenic Arabidopsis plants; format: in vivo, Pseudomonas syringae; details: protein expressed in transgenic Arabidopsis (Col-0 gl1), DEX-induced
Description: (§1) Following inoculation, infected plants were monitored daily over a 3- to 4-day period for symptom development and bacterial multiplication. For experiments described in FIGS. 1 and 5, plants were sprayed with 30 μM dexamethasone (DEX) 24 h before bacterial inoculation (1×10^6 cfu/ml).
(§2) Leaves were harvested and surface sterilized as follows: 1) whole leaves were removed from a host plant and gently mixed in a 70% ethanol solution for 1 minute. Leaves were blotted briefly on paper towels then rinsed in sterile distilled water for 1 minute, then blotted dry on paper towels. Leaf disks were excised from leaves with a 0.5 cm^2 or smaller cork borer, depending on the size of the sample leaves; 2) leaf disks from the leaves of 2 or more independent replicate plants were pooled for a single tissue sample and placed in a 1.5-mL microfuge tube with 100 μL sterile distilled water, the amount of leaf tissue per tube was recorded as leaf surface area. Three or more samples were harvested for each time point. […] The number of serial dilutions necessary to get countable colonies were determined for each sample, however dilutions to 10^−7 were usually sufficient for any bacterial strain; 7) The samples were plated on the appropriate medium (e.g., Low salt Luria Bertani) supplemented with the necessary antibiotics to select for the specific inoculated bacterial strain. […]

Pst DC3000 = experiment: as above; format: in vivo, Pseudomonas syringae; details: full-length HopM1 expressed in transgenic Arabidopsis
Description: as §1, §2

hrcC mutant = experiment: Bacterial multiplication in HopM1 transgenic Arabidopsis plants; format: in vivo, Pseudomonas syringae; details: full-length HopM1 expressed in transgenic Arabidopsis
Description: as §1, §2

AtMIN7 [2] = experiment: Detection of polyubiquitinated AtMIN7 in planta; format: cell-based, Arabidopsis thaliana; details: MG132-treated N. benthamiana leaves
From the text: Left: AtMIN7:HA and 6×His:HopM1-300, 6×His:HopM301-712 or 6×His:HopM1-712 were transiently co-expressed in MG132-treated N. benthamiana leaves. Ubiquitinated proteins were detected by western blot (WB) with a polyclonal ubiquitin (Ub) antibody (Sigma Co.). Right: AtMIN7:HA and 6×His:HopM1-712 were transiently co-expressed in 1% DMSO (−)- or MG132-treated N. benthamiana leaves. AtMIN7 was immunoprecipitated (IP) using a polyclonal AtMIN7 antibody. Ubiquitinated AtMIN7 protein was detected by western blot (WB) with a polyclonal ubiquitin (Ub) antibody (Sigma Co.). See Materials and Methods for transient expression and immunoprecipitation of AtMIN7 and HopM1 in N. benthamiana leaves.

B1: full-length HopM1: Pst DC3000 type III effector, 712-aa virulence protein (SEQ ID NO:34) (protein)
chain: MISSRIGGAGGVELSRVNQQHDTVPAQTAHPNAVTAGMNPPLTPDQSGSHATESSSAGAARLNVAARHTQLLQAFKAEHGTAPVSGAPMISSRAALLIGSLLQAEPLPFEVMAEKLSPERYQLKQFQGSDLQQRLEKFAQPGQIPDKAEVGQLIKGFAQSVADQLEHFQLMHDASPATVGQHAKADKATLAVSQTALGEYAGRASKAIGEGLSNSIASLDEHISALDLTLQDAEQGNKESLHADRQALVDAKTTLVGLHADFVKSPEAKRLASVAAHTQLDNVVSDLVTARNTVGGWKGAGPIVAAAVPQFLSSMTHLGYVRLSTSDKLRDTIPETSSDANMLKASIIGMVAGIAHETVNSVVKPMFQAALQKTGLNERLNMVPMKAVDTNTVIPDPFELKSEHGELVKKTPEEVAQDKAFVKSERALLNQKKVQGSSTHPVGELMAYSAFGGSQAVRQMLNDVHQINGQTLSARALASGFGGAVSASSQTLLQLKSNYVDPQGRKIPVFTPDRAESDLKKDLLKGMDLREPSVRTTFYSKALSGIQSSALTSALPPVTAQAEGASGTLSAGAILRNMALAATGSVSYLSTLYTNQSVTAEAKALKAAGMGGATPMLDRTETALNNIRHPNRESLPHTFQKSTLSGIPRVAENAYHMGRGALQLPTQMAVDTVRVVDEGVLNAVASAREALKQPTKDDDALRALEEGLLDPR
modifications: 6xHis tag; Pseudomonas syringae pv. tomato str. DC3000
endogenous AtMIN7 protein on immunoblot (AtMIN7 [1]): absent
complementation of the virulence defect (multiplication, disease symptoms) (Pst DC3000 ΔCEL mutant): almost fully complemented
complementation effect on multiplication (Pst DC3000): did not show this effect
complementation effect on multiplication (hrcC mutant): did not show this effect
polyubiquitination of AtMIN7 (AtMIN7 [2]): enhanced
